This note sets out measurements from article PMC4108180.

What all share (experiment): purified protein
Substrate in data set [1]: C[C@H]1C[C@@H](O)[C@H](O)C(=O)O1
As to conditions: 2.5 mM MOPS pH 7.1, 0.2 M NaCl, 1% DMSO, 30 °C.

Substrate in data set [2]: O=C1O[C@@H](CO)[C@@H](O)[C@@H]1O
To be noted: 2.5 mM MOPS pH 7.1, 0.2 M NaCl, 1% DMSO, 30 °C.

Substrate in data set [3]: O=C1O[C@H](CO)[C@@H](O)[C@@H]1O
To be noted: 2.5 mM MOPS pH 7.1, 0.2 M NaCl, 1% DMSO, 30 °C.

Substrate in data set [4]: O=C1O[C@@H](CO)[C@H](O)[C@@H](O)[C@@H]1O
As to conditions: 2.5 mM MOPS pH 7.1, 0.2 M NaCl, 1% DMSO, 30 °C.

Substrate in data set [5]: C[C@H](O)[C@H]1OC(=O)[C@@H](O)[C@@H]1O
To be noted: 2.5 mM MOPS pH 7.1, 0.2 M NaCl, 1% DMSO, 30 °C.

Substrate in data set [6]: O=C1O[C@H]([C@@H](O)CO)[C@@H](O)[C@@H]1O
To be noted: 2.5 mM MOPS pH 7.1, 0.2 M NaCl, 1% DMSO, 30 °C.

Substrate in data set [7]: NC(=O)c1ccc[n+]([C@@H]2O[C@H](COP(=O)(O)OP(=O)(O)OC[C@H]3O[C@@H](n4cnc5c(N)ncnc54)[C@H](O)[C@@H]3O)[C@@H](O)[C@H]2O)c1
As to conditions: with L-galactose, 50 mM BICINE pH 8.0, 30 °C, varied: cofactor.

Substrate in data set [8]: O=C(O)[C@@H](O)[C@H](O)[C@@H](O)[C@@H](O)CO
To be noted: 0.5 mM NAD+, 50 mM phosphate pH 7.5, 30 °C.

Substrate in data set [9]: O=C(O)[C@@H](O)[C@H](O)[C@H](O)[C@@H](O)CO
To be noted: 0.5 mM NAD+, 50 mM phosphate pH 7.5, 30 °C.

B1: Bvu0220 (Phocaeicola vulgatus ATCC 8482) (protein)
chain: MMDFNIIDAHSHLWLRQDTEVNGLPIRTLTNGRSLFMGEERQMVPPFMIDGRNSAEVFLSNMDYAQVSAAVVTQEFIDGIQNEYLAKVSHKYPDRFFVCGMCEFRKPGYLQQAKELISSGFKAIKIPAHRLFLKEGRVMLNSDEMMEMFHYMQEKDIILSIDLADGDTQVQEMKEIIQEYPQLRIAIGHFGMVTTPHWQEQIKLARHKNVMIESGGITWLFNSEFYPFHGAVKAIKEAADLVGMDKLMWGSDYPRTITAITYKMSYDFILKTTEMTQEEKALFLGKNAERFYGFKNLISLPYIKNMSE
As a reminder, the Km is the substrate concentration at which the rate is half of its maximum. The kcat is the number of substrate molecules converted per active site and unit of time at saturation. The kcat/Km is the turnover number divided by the Michaelis constant. With B1, the Km in “purified protein [1]” turned out to be 32 ± 4 µM; in the data set “purified protein [2]”, 5500 ± 550 µM; in “purified protein [3]”, 1700 ± 140 µM; in the data set “purified protein [4]”, 500 ± 40 µM; in the data set “purified protein [5]”, 1320 ± 210 µM; in the data set “purified protein [6]” it was 1950 ± 310 µM. For the same protein, the kcat in the data set “purified protein [1]” came out at 23 ± 1 s⁻¹; in the data set “purified protein [2]”, 5.3 ± 0.4 s⁻¹; in “purified protein [3]”, 1 ± 0.1 s⁻¹; in the data set “purified protein [4]”, 38 ± 1 s⁻¹; in “purified protein [5]”, 23 ± 2 s⁻¹; in “purified protein [6]”, 34 ± 3 s⁻¹. For the same protein, the kcat/Km stood at 720000 ± 80000 M⁻¹ s⁻¹ in “purified protein [1]”; 930 ± 40 M⁻¹ s⁻¹ in “purified protein [2]”; 500 ± 30 M⁻¹ s⁻¹ in “purified protein [3]”; 80000 ± 5000 M⁻¹ s⁻¹ in the data set “purified protein [4]”; 18000 ± 2000 M⁻¹ s⁻¹ in the data set “purified protein [5]”; 18000 ± 2000 M⁻¹ s⁻¹ in the data set “purified protein [6]”.

B2: Bvu0219 (Phocaeicola vulgatus ATCC 8482) (protein)
chain: MNYNEIGKTGMRVSNLSFGASSLGGVFHDIREAEGIKAVYTAVENGMNFIDVSPYYGHYKAETVLGKALKEIPRDKYYLSTKVGRYGKDGVNTWDYSGKRATESVYESLDRLHIEYIDLINVHDVEFSDMNQVVNETLPALVELKKKGIVGHVGITDLQLENLKWIIDHSEPGTVESVLNFCHYCLNDEKLTDYLDYFESKNIGIINASPLSMGLLSQRGVPAWHPAPQSLVEACRKAVQHCLSKNYPIEKLAIQYSVSNPRIATTLFSSANPDNVLKNITYAEEPIDWNLVKEVQEIIGKQMRISWANS
Consider B2, for which, in the data set “purified protein [7]”, the Km was found to be 3000 ± 200 µM, the kcat was 25 ± 1 s⁻¹ and the kcat/Km was found to be 9000 ± 100 M⁻¹ s⁻¹.

B3: Bvu0222 (Phocaeicola vulgatus ATCC 8482) (protein)
chain: MKAIQITAPSEMKVVDIEKPVLEPGEVLVKIKYVGFCGSDLNTFLGRNPMVKLPVIPGHEVGAVIEAVGKDVPDSLKPGMSVTVNPYTNCGKCASCRNGRVNACEHNETLGVQRNGAMCEYIALPWSKIIPAHRIPPRDCALIEPMSVGFHAVSRAQVTDIDIVMVIGCGMIGMGAIVRSALRGATVIAVDLDDEKLELAKRIGAHHTINSMTENVHECLTKITEGLGPDVVIEAVGSPATYVMAVNEVGFTGRVVCIGYAKSEVSFQTKYFVQKELDIRGSRNALPTDFRAVIRYMEQGTCPKNELISKVVKPEAAIQAMKEWAAAPGKVFRILVEFD
Turning to B3, in the data set “purified protein [8]”, the Km was found to be 510 ± 70 µM, the kcat is 0.2 ± 0.1 s⁻¹ and the kcat/Km turned out to be 390 ± 60 M⁻¹ s⁻¹. In addition, in the data set “purified protein [9]”, the Km stood at 36 ± 3 µM, the kcat turned out to be 0.6 ± 0.1 s⁻¹ and the kcat/Km came to 17000 ± 1000 M⁻¹ s⁻¹.
